Assay results taken from the supplement of paper PMC7125110.
± gives the standard error. Fewer inactive variants are shown than the library holds.

B1: glmS ribozyme (parent)
chain: AUAAAAGCGCCAGAACUACAGAAAUGUAGUUGACGAGGAGGAGGUUUAUCGAAUUUUCGGCGGAUGCCUCCAAA

Key:
Details in all cases: with glucosamine-6-phosphate
glucosamine-6-phosphate [1] = variants of: B1; test: self-cleavage kobs at 40 uM GlcN6P; higher = faster cleavage; RNA array
Procedure, shortened: (§1)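 Glucosamine-6-phosphate in HEPES/KCl/Mg(OAc)2 buffer, at 40 μM to 10 mM, was flowed over barcoded ribozyme variants transcribed in situ by E. coli RNA polymerase on sequenced MiSeq chips. Tracking was through a hybridised Cy3 probe at 37 °C. kobs, kcat and KM came from exponential decay fits and weighted Michaelis–Menten fits of normalised per-tile medians.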

glucosamine-6-phosphate [2] = variants of: B1; test: self-cleavage kobs at 160 uM GlcN6P; higher = faster cleavage; RNA array
Procedure, shortened: as §1

glucosamine-6-phosphate [3] = variants of: B1; test: self-cleavage kobs at 640 uM GlcN6P; higher = faster cleavage; RNA array
Procedure, shortened: as §1

glucosamine-6-phosphate [4] = variants of: B1; test: self-cleavage kobs at 2500 uM GlcN6P; higher = faster cleavage; RNA array
Procedure, shortened: as §1

glucosamine-6-phosphate [5] = variants of: B1; test: self-cleavage kobs at 10000 uM GlcN6P; higher = faster cleavage; RNA array
Procedure, shortened: as §1

Row | Variant | self-cleavage kobs at 40 uM GlcN6P (glucosamine-6-phosphate [1]) [s⁻¹] | self-cleavage kobs at 160 uM GlcN6P (glucosamine-6-phosphate [2]) [s⁻¹] | self-cleavage kobs at 640 uM GlcN6P (glucosamine-6-phosphate [3]) [s⁻¹] | self-cleavage kobs at 2500 uM GlcN6P (glucosamine-6-phosphate [4]) [s⁻¹] | self-cleavage kobs at 10000 uM GlcN6P (glucosamine-6-phosphate [5]) [s⁻¹]
1 | A12U C16U | 0.00238 ± 0.0003 | 0.00439 ± 0.00083 | 0.0232 ± 0.0037 | 0.076 ± 0.027 | 0.0879 ± 0.035
2 | G40U A42G G51C A52G C70G | < 1e-05 | – | – | < 1e-05 | < 1e-05
3 | U55G C67U | 0.000342 ± 3.5e-05 | 0.000573 ± 9.2e-05 | 0.000864 ± 0.00017 | 0.00136 ± 0.00026 | 0.0121 ± 0.0017
4 | G41C A42C | < 1e-05 | < 1e-05 | < 1e-05 | < 1e-05 | –
5 | C16U A33U C68A | < 1e-05 | < 1e-05 | – | – | –
6 | G9C C11G G37A G38A U54C A64G | < 1e-05 | – | – | – | –
7 | G35U G41U U45C | < 1e-05 | – | – | – | < 1e-05
8 | A36U A39G G51A A53U | < 1e-05 | – | < 1e-05 | < 1e-05 | < 1e-05
9 | C61A U69A | < 1e-05 | – | – | – | < 1e-05
10 | C11U A14G A15G | 0.000235 ± 5.3e-05 | – | – | – | 0.0112 ± 0.0025
11 | G35C A52C | < 1e-05 | < 1e-05 | < 1e-05 | < 1e-05 | < 1e-05
12 | C8G A14G U31C | < 1e-05 | – | – | – | –
13 | U30G C61G | < 1e-05 | – | – | – | < 1e-05
14 | G9A C67U | < 1e-05 | < 1e-05 | – | < 1e-05 | –
15 | C10G U56G C68A | < 1e-05 | – | – | – | –
16 | C8G G62U | < 1e-05 | < 1e-05 | < 1e-05 | < 1e-05 | –
17 | C11A G38U C67G C68U | 0.000296 ± 7.3e-05 | – | – | – | 0.000394 ± 9.3e-05
18 | C8G U31C A36U U57A | < 1e-05 | – | – | < 1e-05 | –
19 | C16A G37C | < 1e-05 | – | – | – | –
20 | C50G G63A | 5.7e-05 ± 1.5e-05 | 0.000484 ± 0.00023 | 4e-05 ± 1.7e-05 | 3.78e-05 ± 1.6e-05 | –
21 | G7A G13U U55C | < 1e-05 | – | – | – | < 1e-05
22 | A6C G62U | < 1e-05 | < 1e-05 | – | < 1e-05 | < 1e-05
23 | A12G C68G C71U | < 1e-05 | – | < 1e-05 | – | < 1e-05

Row | Variant | self-cleavage kobs at 40 uM GlcN6P (glucosamine-6-phosphate [1]) [s⁻¹] | self-cleavage kobs at 160 uM GlcN6P (glucosamine-6-phosphate [2]) [s⁻¹] | self-cleavage kobs at 640 uM GlcN6P (glucosamine-6-phosphate [3]) [s⁻¹] | self-cleavage kobs at 2500 uM GlcN6P (glucosamine-6-phosphate [4]) [s⁻¹] | self-cleavage kobs at 10000 uM GlcN6P (glucosamine-6-phosphate [5]) [s⁻¹]
24 | A6U G9A U65G C70A | < 1e-05 | – | – | – | –
25 | A6G U46G | < 1e-05 | < 1e-05 | – | – | 7.11e-05 ± 8.7e-06
26 | G7U U57G C61A C68U C70U | 5.84e-05 ± 2.5e-05 | – | – | – | –
27 | G9A A42C C71A | < 1e-05 | < 1e-05 | < 1e-05 | < 1e-05 | < 1e-05
28 | C11G U46G C58G C67U | 0.000158 ± 4.6e-05 | – | 0.000483 ± 0.00015 | – | 0.000304 ± 8.1e-05
29 | U31G U45C U49G | < 1e-05 | – | < 1e-05 | – | < 1e-05
30 | U49G U54G | 3.67e-05 ± 1.4e-05 | – | – | – | 0.000838 ± 0.00014
31 | G9C U55G | < 1e-05 | – | – | – | < 1e-05
32 | U31A A53G C61A | < 1e-05 | – | – | < 1e-05 | < 1e-05
33 | C8A C16G | < 1e-05 | < 1e-05 | < 1e-05 | < 1e-05 | < 1e-05
34 | C11U A14G G40U A42C | < 1e-05 | – | – | – | < 1e-05
35 | U31C G43C | < 1e-05 | – | < 1e-05 | < 1e-05 | < 1e-05
36 | G7U A52G | < 1e-05 | < 1e-05 | – | – | –
37 | A15C U57C | < 1e-05 | – | – | – | 5.67e-05 ± 6.7e-06
38 | U49C U54G | < 1e-05 | < 1e-05 | < 1e-05 | – | < 1e-05
39 | A36G G60U G66U | < 1e-05 | – | < 1e-05 | < 1e-05 | < 1e-05
40 | A6U G26A A48U A52G | < 1e-05 | < 1e-05 | – | – | –
41 | C8G C34A | < 1e-05 | < 1e-05 | – | < 1e-05 | < 1e-05
42 | G41C A42G A53C G63A | < 1e-05 | – | < 1e-05 | < 1e-05 | –
43 | A14G A15C U54G | 0.000827 ± 0.00016 | – | – | – | 0.048 ± 0.017
44 | C11A C70U C71G | 4.85e-05 ± 1.9e-05 | – | – | – | 3.22e-05 ± 1.6e-05
45 | C11G A33G G40C | < 1e-05 | – | – | – | < 1e-05
46 | U30G U55G C71U | 0.00027 ± 5e-05 | – | 0.00135 ± 0.00022 | 0.00316 ± 0.0014 | 0.00591 ± 0.001
